# Assay results from article PMC9306000.
# Substrate: CC(C)=C[C@@H]1[C@@H](C(=O)SCCNC(=O)CCNC(=O)[C@H](O)C(C)(C)COP(=O)(O)OP(=O)(O)OC[C@H]2O[C@@H](n3cnc4c(N)ncnc43)[C@H](O)[C@@H]2OP(=O)(O)O)C1(C)C
# Assay: purified protein
# Conditions: 1 mM (S)-pyrethrolone, 50 mM Tris-HCl pH 7.5, 25 °C, 10 min
protein,measurement,value
TcGLIP (Tanacetum cinerariifolium) (protein) SQQAAALFIFGDSVFDPGNNNHINTHVNFKANFWPYGQSYFSSPTGRFSDGRIIPDFIAEYASLPIIPAYLEPNNDFTHGANFASAGAGALIASHAGLAVGLQTQLRYFGDLVDHYRQNLGDIKSRQLLSDAVYLFSCGGNDYQSPYYPYTQEQYVDIVIGNMTNVIKGIYEKGGRKFGVVNVPLIGCWPGMRAKQPGNTCNTEVDELTRLHNQAFAKRLEQLEKQLEGFVYAKFDLSTAILNRMKNPSKYGFKEGESACCGSGPFGGNYDCGRIKEFGLCDNATEYFFFDPFHPNELASRQFAEMFWDGDSMVTQPYNLKALFEGKPSTKYLPNDEL,Km,520 ± 95 µM
same,Vmax,0.14 µmol/min/mg
same,Vmax/Km,269 µL/min/mg
